From FireProtDB (doi:10.1038/9384)

B1: Acyl-CoA-binding protein, P07107 (parent)
chain: MSQAEFDKAAEEVKHLKTKPADEEMLFIYSHYKQATVGDINTERPGMLDFKGKAKWDAWNELKGTSKEDAMKAYIDKVEELKKKYGI

Variants of: B1
Settings: Bos taurus; pH 5.3; 5 °C; GdnHCl; Fluorescence; Sodium acetate 0.02 M; structure 2ABD; whole UniProt chain shown

Row | Variant | ddG of mutation (higher = less stable) | denaturant m value | unfolding free energy
1 | MSQAEFDKAAEEVKHLKTKPADEEMLFIYSHYKQATVGDINTERPGMLDFKGKAMWDAWNELKGTSKEDAMKAYIDKVEELKKKYGI [K55M] | 0.22 kcal/mol | 3.33 kcal/mol/M | 7.86 kcal/mol
2 | MSQAEFDKAAEEVKHLKTKPADEEMLFIYSHYKQATVGDINTERPGMLDFKGKAAWDAWNELKGTSKEDAMKAYIDKVEELKKKYGI [K55A] | 1.41 kcal/mol | 3.15 kcal/mol/M | 6.67 kcal/mol
3 | MSQAEFDKAAEEVKHLKTKPADEEMLFIYSHYKQATVGDANTERPGMLDFKGKAKWDAWNELKGTSKEDAMKAYIDKVEELKKKYGI [I40A] | 1.06 kcal/mol | 3.51 kcal/mol/M | 7.02 kcal/mol
4 | MSQAEFDKAAEEVKHLKTKAADEEMLFIYSHYKQATVGDINTERPGMLDFKGKAKWDAWNELKGTSKEDAMKAYIDKVEELKKKYGI [P20A] | 0.91 kcal/mol | 3.3 kcal/mol/M | 7.17 kcal/mol
5 | MSQAEFDKAAEEVKHLKTKPADEEMLFIYSHYKQATVGDINTERPGMLDFKGKAKWDAWNELKGTSKEDAMKAYADKVEELKKKYGI [I75A] | 1.34 kcal/mol | 3.91 kcal/mol/M | 6.74 kcal/mol
6 | MSQAEFDKAAEEVKHLKTKPADEEMLAIYSHYKQATVGDINTERPGMLDFKGKAKWDAWNELKGTSKEDAMKAYIDKVEELKKKYGI [F27A] | 1.53 kcal/mol | 3.8 kcal/mol/M | 6.55 kcal/mol
7 | MSQAEFDKAAEEVKHLKTKPAAEEMLFIYSHYKQATVGDINTERPGMLDFKGKAKWDAWNELKGTSKEDAMKAYIDKVEELKKKYGI [D22A] | 0.4 kcal/mol | 3.32 kcal/mol/M | 7.68 kcal/mol
8 | MSQAEFDKAAEEVKHLKTKPADEEMLFIYSHYKQATVGDINTERPGMLDFKGMAKWDAWNELKGTSKEDAMKAYIDKVEELKKKYGI [K53M] | -0.48 kcal/mol | 3.71 kcal/mol/M | 8.56 kcal/mol
9 | MSQAEFDKAAEEVKHLKTKPADEEMLFIASHYKQATVGDINTERPGMLDFKGKAKWDAWNELKGTSKEDAMKAYIDKVEELKKKYGI [Y29A] | 2.52 kcal/mol | 3.97 kcal/mol/M | 5.56 kcal/mol
10 | MSQAEFDKAAEEVKHLKTKPADEEMLFINSHYKQATVGDINTERPGMLDFKGKAKWDAWNELKGTSKEDAMKAYIDKVEELKKKYGI [Y29N] | 2.47 kcal/mol | 3.65 kcal/mol/M | 5.61 kcal/mol
11 | MSQAEFDKAAEEVKHLKTKPADEEMLFIFSHYKQATVGDINTERPGMLDFKGKAKWDAWNELKGTSKEDAMKAYIDKVEELKKKYGI [Y29F] | 1.26 kcal/mol | 3.56 kcal/mol/M | 6.82 kcal/mol
12 | MSQAEFDKAAEEVKHLKTKPADEEMLFIYSHYEQATVGDINTERPGMLDFKGKAKWDAWNELKGTSKEDAMKAYIDKVEELKKKYGI [K33E] | 1.47 kcal/mol | 3.42 kcal/mol/M | 6.61 kcal/mol
13 | MSQAEFDKAAEEVKHLKTKPADEEMLFIYSHYAQATVGDINTERPGMLDFKGKAKWDAWNELKGTSKEDAMKAYIDKVEELKKKYGI [K33A] | 1.61 kcal/mol | 3.39 kcal/mol/M | 6.47 kcal/mol
14 | MSQAEFDKAAEEVKHLKTKPADEEMLFIYSHYKQATVGDINTERPGMLDFKGKAKWDAWNELKGTSKEDAMKAYIDKAEELKKKYGI [V78A] | 1.54 kcal/mol | 3.78 kcal/mol/M | 6.54 kcal/mol
15 | MSQAEFDKAAEEAKHLKTKPADEEMLFIYSHYKQATVGDINTERPGMLDFKGKAKWDAWNELKGTSKEDAMKAYIDKVEELKKKYGI [V13A] | 1.5 kcal/mol | 3.47 kcal/mol/M | 6.58 kcal/mol
16 | MSQAEFDKAAEEVKHLKTKPADEEMLFIYSHYKQATVGDINTERPGMLDFKGKAKWDAWNELKGTSKEDAMKAFIDKVEELKKKYGI [Y74F] | -0.03 kcal/mol | 3.31 kcal/mol/M | 8.11 kcal/mol
17 | MSQAEFDKAAEEVKHLKTKPADEEMLFIYSHYKQAAVGDINTERPGMLDFKGKAKWDAWNELKGTSKEDAMKAYIDKVEELKKKYGI [T36A] | 1.28 kcal/mol | 3.93 kcal/mol/M | 6.8 kcal/mol
18 | MSQAEFDKAAEEVKHAKTKPADEEMLFIYSHYKQATVGDINTERPGMLDFKGKAKWDAWNELKGTSKEDAMKAYIDKVEELKKKYGI [L16A] | 3.57 kcal/mol | 3.19 kcal/mol/M | 4.51 kcal/mol
19 | MSQAEADKAAEEVKHLKTKPADEEMLFIYSHYKQATVGDINTERPGMLDFKGKAKWDAWNELKGTSKEDAMKAYIDKVEELKKKYGI [F6A] | 2.63 kcal/mol | 3.51 kcal/mol/M | 5.45 kcal/mol
20 | MSQAEFDKAAEEVKHLKTKPADEEMAFIYSHYKQATVGDINTERPGMLDFKGKAKWDAWNELKGTSKEDAMKAYIDKVEELKKKYGI [L26A] | 2.02 kcal/mol | 3.36 kcal/mol/M | 6.06 kcal/mol
21 | MSQAEFDKAAEEVKHLKTKPADEEMLFIYSHYKQATVGDINTERPGMLDFKGKAKWDAWNELKGTSKADAMKAYIDKVEELKKKYGI [E68A] | 0.8 kcal/mol | 3.45 kcal/mol/M | 7.28 kcal/mol
22 | MSQAEFDKAGEEVKHLKTKPADEEMLFIYSHYKQATVGDINTERPGMLDFKGKAKWDAWNELKGTSKEDAMKAYIDKVEELKKKYGI [A10G] | 2 kcal/mol | 3.4 kcal/mol/M | 6.08 kcal/mol
23 | MSQAEFDKAAEEVKHLKTKPADEEMLFIYSHYKAATVGDINTERPGMLDFKGKAKWDAWNELKGTSKEDAMKAYIDKVEELKKKYGI [Q34A] | 3.03 kcal/mol | 4.49 kcal/mol/M | 5.05 kcal/mol
24 | MSQAEFDKAAEEVKHLKTKPADEEMLFIYSHYKQATVGDINTERPGMLDFKGKAKWDAWNELKGTSKEDAMKAYIDKVEEAKKKYGI [L81A] | 4.57 kcal/mol | 3.08 kcal/mol/M | 3.51 kcal/mol
25 | MSQAEFDKAAEEVKHLKTKPADEEMLFIYSHNKQATVGDINTERPGMLDFKGKAKWDAWNELKGTSKEDAMKAYIDKVEELKKKYGI [Y32N] | 0.97 kcal/mol | 4.95 kcal/mol/M | 7.11 kcal/mol
